Biological target: PrgJ (S. enterica sv. Typhimurium (endogenous in SB905)) (UniProt P41785)
Experiment: cryo-EM structure

PrgJ, sequence (P41785 whole entry): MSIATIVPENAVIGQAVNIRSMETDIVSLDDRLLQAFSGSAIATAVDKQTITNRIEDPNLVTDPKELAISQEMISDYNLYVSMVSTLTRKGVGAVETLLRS

Q: “PrgJ (from UniProt P41785 1-101) (natural protein)” was tested. Which stoichiometry N did it give?
A: 6

Reference: paper PMC7943601
